Assay results: publication PMC4513104, “Fatty Acid-binding Proteins Interact with Comparative Gene Identification-58 Linking Lipolysis with Lipid Ligand Shuttling*” (The Journal of Biological Chemistry, 2015)

Key:
m^solCgi-58 = molecular target: T1, m^solCgi-58 (mouse, UniProt Q9DBL9 2-351, S239E); test: NMR titration; 1H-15N HSQC of 50 μM 15N labeled A-Fabp with 0, 10, 25, 50, 100 and 200 μM m^solCgi-58; 15 mM Na2HPO4/KH2PO4, pH 7.0, 300 mM NaCl, 1 mM DTT, 1 mM EDTA; 298 K; settings: both partners purified
T1 construct: mouse Cgi-58, Lys-2–Asp-351, with S239E; preceded by a TEV protease cleavage site and cleaved by TEV; used for NMR experiments only; also called mCgi-58^S239E; cgi-58_S239E variant with increased solubility; source: E. coli BL21(DE3), co-expressed with the chaperone Tig, purified (His-Trap, TEV cleavage, Superdex 200); not shown: His tag, N-terminal, cleaved; SUMO, N-terminal, cleaved
T1 sequence (looked up): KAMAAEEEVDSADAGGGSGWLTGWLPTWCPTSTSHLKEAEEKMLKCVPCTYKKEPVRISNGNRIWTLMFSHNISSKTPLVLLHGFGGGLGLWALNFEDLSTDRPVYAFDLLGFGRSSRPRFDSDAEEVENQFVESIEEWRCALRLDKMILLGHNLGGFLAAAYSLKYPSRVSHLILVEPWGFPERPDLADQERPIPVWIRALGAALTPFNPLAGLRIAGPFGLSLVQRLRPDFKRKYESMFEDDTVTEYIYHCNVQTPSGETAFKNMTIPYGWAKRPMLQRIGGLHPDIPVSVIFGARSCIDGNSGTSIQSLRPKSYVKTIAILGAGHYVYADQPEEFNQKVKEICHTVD

Gst-Cgi-58 = molecular target: T2, Gst-Cgi-58 (mouse, UniProt Q9DBL9 1-351, Sulfo-SBED cross-linker covalently linked (label transfer); fluorescent label NT-495 by NHS coupling (microscale thermophoresis)); test: MST; Gst-tagged Cgi-58 labelled with NT-495 (NHS coupling) at constant amount; unlabeled Strep-tagged A-Fabp 8 nM to 250 μM; 100 mM Tris, pH 8.0, 150 mM NaCl, 1 mM EDTA, 0.05% Tween 20; Monolith NT.115, duplicate; settings: both partners purified
T2 construct: comparative gene identification-58 (Cgi-58), mouse; also called Gst-tagged Cgi-58; mouse Gst-Cgi-58
T2 sequence (looked up): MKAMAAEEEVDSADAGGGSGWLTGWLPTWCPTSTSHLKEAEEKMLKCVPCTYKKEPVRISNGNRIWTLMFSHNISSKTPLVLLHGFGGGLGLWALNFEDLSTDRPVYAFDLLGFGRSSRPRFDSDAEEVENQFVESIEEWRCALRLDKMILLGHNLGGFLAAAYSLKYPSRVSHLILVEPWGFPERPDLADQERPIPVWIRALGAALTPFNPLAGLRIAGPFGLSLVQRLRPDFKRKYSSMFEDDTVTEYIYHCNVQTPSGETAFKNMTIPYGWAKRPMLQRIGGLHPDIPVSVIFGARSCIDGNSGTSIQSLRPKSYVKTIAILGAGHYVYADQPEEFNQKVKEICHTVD

- binding result (m^solCgi-58): binds
- Kd (Gst-Cgi-58): 192 ± 22 µM
B1: Strep-tagged A-Fabp (natural protein, human, UniProt P15090 1-132, looked up)
chain: MCDAFVGTWKLVSSENFDDYMKEVGVGFATRKVAGMAKPNMIISVNGDVITIKSESTFKNTEISFILGQEFDEVTADDRKVKSTITLDGGVLVHVQKWDGKSTTIKRKREDDKLVVECVMKGVTSTRVYERA
modifications: 15N (and 13C) labelled in the NMR experiments
notes: residue numbers start with methionine as the first amino acid; vector pASK-IBA5plus; also called Strep-A-Fabp; source: E. coli BL21(DE3), purified (Strep-Tactin)
